Data taken from US20210380699A1 (published 2021).

T1: PD-L2-Fc (R&D Systems) (UniProt Q9BQ51 20-219, limits assumed)
T1 construct: not shown: Fc of the bought protein
T1 sequence (looked up): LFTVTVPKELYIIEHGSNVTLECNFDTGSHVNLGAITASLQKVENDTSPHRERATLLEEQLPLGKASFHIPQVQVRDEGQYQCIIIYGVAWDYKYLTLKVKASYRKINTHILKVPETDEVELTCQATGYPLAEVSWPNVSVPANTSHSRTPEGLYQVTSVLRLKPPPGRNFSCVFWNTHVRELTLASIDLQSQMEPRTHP

B1: 84G09 (human IgG1) (antibody, V domains shown)
VH: EVQLVESGGGLVQPGRSLRLSCAASGFTFDDYAMHWVRQTPGKGLEWVSGISWKSNIIGYADSVKGRFTISRDNAKNSLYLQMNSLRAEDTALYYCARDITGSGSYGWFDPWGQGTLVTVSS
VL: DIQMTQSPSSLSASVGDRVTITCRASQSISSYLNWYQQKPGKAPKPLIYVASSLQSGVPSSFSGSGSGTDFTLTISSLQPEDFATYYCQQSYSNPITFGQGTRLEIKR
notes: also called clone 84609; lead antibody
B2: 1D05 (control antibody of Examples 14 and 15, constant region not stated) (antibody, V domains shown)
VH: EVQLVESGGGLVQPGRSLRLSCAASGFTFDDYAMHWVRQVPGKGLEWVSGISWIRTGIGYADSVKGRFTIFRDNAKNSLYLQMNSLRAEDTALYYCAKDMKGSGTYGGWFDTWGQGTLVTVSS
VL: not shown
notes: Unfused 1D05 run beside the immunocytokines; also called wild type antibody
B3: 414B06 (antibody, V domains shown)
VH: EVHLVESGGGLVQPGGSLRLSCAASGFTFSSYWMNWVRQAPGKGLEWVANIKQDGSEKYYVDSVKGRFTVSRDNAKNSLYLQMNSLRAEDTAVYYCARVRQWSDYSDYWGQGTPVTVSS
VL: DIQMTQSPSSVSASVGDRVTITCRASQGISSWLAWYQQKPGKAPKLLIYAASSLQSGVPSRFSGSGSGTDFTLTISSLQPEDFATYYCQQANSFPFTFGPGTKVDIKR
notes: also called 414606

Key:
[1] = molecular target: T2, Human PD-L1 expressed on cells (human, UniProt Q9NZQ7 19-290); assay: flow cytometry on CHO hPD-L1 cells, competitor biotin-PD-1-Fc
T2 construct: One entry used for transfected and natively expressing cells; also called CHO-S hPD-L1; CHO human PD-L1
Protocol: Plates were centrifuged at 300×g for 3 minutes to supernatant aspirated. […] Cells were washed with 150 μL of PBS and centrifuged at 300 g for 3 minutes. Supernatant was aspirated and 150 μL PBS added. This wash step was repeated.

PD-L2-Fc (R&D Systems) = molecular target: T1, PD-L2-Fc (R&D Systems); assay: DELFIA plate assay, biotinylated antibody on plate-bound PD-L2-Fc
Protocol: Excess protein was removed by washing with PBS-Tween (0.1% v/v) and the wells were blocked with 250 μL/well Pierce Protein Free Blocking Buffer (Thermo, 37572) for 1 hour, after which plates were washed as described previously. […] 100 μL each antibody dilution was added to the plates in duplicate and incubated for 1 hour at room temperature, before washing as stated above. Antibody binding was detected using streptavidin labelled Europium (Perkin Elmer) diluted 1/1000 in DELFIA Assay buffer (Perkin Elmer). Plates were washed with TBS (Tris buffered saline)-Tween (0.1% v/v) and 50 μL/well of DELFIA Enhancement solution (Perkin Elmer) was added to the plate. Time-resolved fluorescence was measured at 615 nm on an Envision plate reader (PerkinElmer).

[2] = molecular target: T2, Human PD-L1 expressed on cells; assay: flow cytometry on CHO hPD-L1 cells, competitor biotin-PD-1-Fc, n = 1
Protocol: (§1) 150 μL FACS buffer is added and cells washed as described above. […] Cells are incubated at 4° C. for 60 minutes. Cells are washed twice with 150 μL FACS buffer, centrifuging at 300 g for 3 minutes after each wash step and aspirating supernatant. Cells are fixed, washed and resuspended for analysis as above. APC signal intensity (geometric mean) is measured by flow cytometry using a Beckman Coulter CYTOFLEX instrument. Data is plotted as percentage of receptor binding.

[3] = molecular target: T2, Human PD-L1 expressed on cells; assay: cell-based or functional assay
[4] = molecular target: T3, Human PD-L1 His (human PD-L1 ECD with C-terminal His tag) (human, UniProt Q9NZQ7 19-238); assay: ELISA, biotin-PD-L1 to plate-bound PD-1, antibody titrated
T3 construct: Biotinylated in ELISA and AlphaScreen assays; also called hPD-L1-his; biotinylated PD-L1 his
Protocol: Excess protein was removed by washing with PBS-Tween (0.1% v/v) and the wells were blocked with 1% w/v bovine serum albumin (BSA, Sigma) in PBS for 1 hour at room temperature, after which plates were washed as described previously. […] The plate was incubated for 30 minutes before transferring 50 μL to the coated plates. The coated plates were incubated for 1 hour at room temperature. Excess protein was removed by washing with PBS-Tween (0.1% v/v). PD-L1 binding was detected using streptavidin labelled Europium (Perkin Elmer) diluted 1/1000 in DELFIA assay buffer (Perkin Elmer). Plates were washed with TBS (Tris buffered saline)-Tween (0.1% v/v) and 50 μL/well of DELFIA Enhancement solution (Perkin Elmer) was added to the plate. Time-resolved fluorescence was measured at 615 nm on an Envision plate reader (PerkinElmer).

[5] = molecular target: T2, Human PD-L1 expressed on cells; assay: flow cytometry on CHO hPD-L1 cells, competitor biotin-CD80-Fc, n = 1
Protocol: as §1
(§2) All other steps are performed as per plate 2.

[6] = molecular target: T4, Cyno PD-L1 FLAG (cynomolgus PD-L1 ECD with FLAG tag) (cynomolgus monkey); assay: SPR 37C, antibody captured, PD-L1 analyte
T4 construct: also called cynomolgus monkey PD-L1-FLAG
Protocol: (§3) Label-free surface plasmon resonance (SPR) analysis was carried out on the ProteOn XPR36 (BioRad) array SPR machine. An anti-human IgG capture surface was created on a GLC biosensor chip using a combination of anti-human Fc antibodies (Jackson Labs 09-005-008,109-006-008 and 309-006-008) by amine coupling. […] The data was analysed using the 1:1 model inherent to the ProteOn XPR36 analysis software.
(§4) Label-free surface plasmon resonance (SPR) analysis was performed as per Example 4, except the assay was performed at 37° C.

[7] = molecular target: T3, Human PD-L1 His (human PD-L1 ECD with …); assay: SPR 37C, antibody captured, PD-L1 analyte
Protocol: as §3, §4

[8] = molecular target: T2, Human PD-L1 expressed on cells; assay: cell-based or functional assay; remark: listed apart in the source
[9] = molecular target: T2, Human PD-L1 expressed on cells; assay: cell-based or functional assay; remark: listed apart in the source
[10] = molecular target: T2, Human PD-L1 expressed on cells; assay: flow cytometry on CHO hPD-L1 cells, competitor biotin-PD-1-Fc, n = 2
Protocol: as §1

[11] = molecular target: T2, Human PD-L1 expressed on cells; assay: flow cytometry on CHO hPD-L1 cells, competitor biotin-CD80-Fc, n = 2
Protocol: as §1, §2

[12] = molecular target: T3, Human PD-L1 His (human PD-L1 ECD with …); assay: ELISA, biotin-PD-L1 to plate-bound CD80, antibody titrated
Protocol: (§5) Excess protein was removed by washing with PBS-Tween (0.1% v/v) and the wells were blocked with 1% w/v bovine serum albumin (BSA, Sigma) in PBS for 1 hour at room temperature, after which plates were washed as described previously. 60 μL of a titration (three-fold dilutions from 100 nM) of antibody was added to a 96-well, non-binding plate diluted in ELISA assay buffer (PBS+0.1% BSA). […] The plate was incubated for 30 min before transferring 50 μL to the coated plates.
(§6) The coated plates were incubated for 1 hour at room temperature. Excess protein was removed by washing with PBS-Tween (0.1% v/v). PD-L1 binding was detected using streptavidin labelled Europium (Perkin Elmer) diluted 1/1000 in DELFIA assay buffer (Perkin Elmer). The plates were washed with TBS (Tris buffered saline)-Tween (0.1% v/v) and 50 μL/well of DELFIA Enhancement solution (Perkin Elmer) was added to the plate. The time-resolved fluorescence was measured at 615 nm on an Envision plate reader (PerkinElmer). Percentage specific binding was calculated as defined in Equation 3.

[13] = molecular target: T3, Human PD-L1 His (human PD-L1 ECD with …); assay: SPR 25C, antibody captured, PD-L1 analyte
Protocol: Label-free surface plasmon resonance (SPR) analysis was carried out on the ProteOn XPR36 (BioRad) array SPR machine. An anti-human IgG capture surface was created on a GLC biosensor chip using amine coupling of an anti-human IgG from GE Healthcare. […] The assay was carried out at 25° C. using HBS-EP (Teknova H8022). Buffer alone was used to reference the binding sensorgrams. The data was analysed using the 1:1 model inherent to the ProteOn XPR36 analysis software.

[14] = molecular target: T3, Human PD-L1 His (human PD-L1 ECD with …); assay: ELISA, biotin-PD-L1 to plate-bound PD-1, antibody titrated; remark: listed apart in the source
Protocol: as §5, §6

[15] = molecular target: T4, Cyno PD-L1 FLAG (cynomolgus PD-L1 ECD …); assay: SPR 37C, antibody captured, PD-L1 analyte; remark: listed apart in the source
[16] = molecular target: T3, Human PD-L1 His (human PD-L1 ECD with …); assay: SPR 37C, antibody captured, PD-L1 analyte; remark: listed apart in the source
[17] = molecular target: T3, Human PD-L1 His (human PD-L1 ECD with …); assay: ELISA, biotin-PD-L1 to plate-bound CD80, antibody titrated; remark: listed apart in the source
Protocol: (§7) Excess protein was removed by washing with PBS-Tween (0.1% v/v) and the wells were blocked with 1% w/v bovine serum albumin (BSA, Sigma) in PBS for 1 hour at room temperature, after which plates were washed with PBS-Tween as above. 60 μL of a titration (three-fold serial dilution) of antibody was added to a 96-well, non-binding plate diluted in ELISA assay buffer (PBS +0.1% BSA). […] The plate was incubated for 30 minutes before transferring 50 μL to the coated plates. The coated plates were incubated for 1 hour at room temperature. Excess protein was removed by washing with PBS-Tween (0.1% v/v). PD-L1 binding was detected using streptavidin labelled europium (Perkin Elmer) diluted 1/1000 in DELFIA assay buffer (Perkin Elmer). The plates were washed with TBS (Tris buffered saline)-Tween (0.1% v/v) and 50 μL/well of DELFIA Enhancement solution (Perkin Elmer) was added to the plate. Time-resolved fluorescence was measured at 615 nm on an Envision plate reader (PerkinElmer). Percentage specific binding was calculated as defined in Equation 3. IC50 values were determined using GraphPad Prism software by curve fitting using a four-parameter logistic equation (Equation 4). Values for KM121 antibodies are a mean of three independent experiments. Values for KM122 are from a single experiment.

[18] = molecular target: T3, Human PD-L1 His (human PD-L1 ECD with …); assay: ELISA, biotin-PD-L1 to plate-bound PD-1, antibody titrated; remark: listed apart in the source
Protocol: as §7

Mouse PD-L1 ECD His = molecular target: T5, Mouse PD-L1 ECD His (mouse, UniProt Q9EP73 19-239); assay: SPR 25C and 37C
T5 construct: also called mouse PD-L1 (his-tagged)

[19] = molecular target: T4, Cyno PD-L1 FLAG (cynomolgus PD-L1 ECD …); assay: SPR 25C, antibody captured, PD-L1 analyte
Protocol: as §3

[20] = molecular target: T3, Human PD-L1 His (human PD-L1 ECD with …); assay: SPR 25C, antibody captured, PD-L1 analyte; remark: listed apart in the source
Protocol: as §3

T2 sequence (Q9NZQ7 19-290 limits assumed): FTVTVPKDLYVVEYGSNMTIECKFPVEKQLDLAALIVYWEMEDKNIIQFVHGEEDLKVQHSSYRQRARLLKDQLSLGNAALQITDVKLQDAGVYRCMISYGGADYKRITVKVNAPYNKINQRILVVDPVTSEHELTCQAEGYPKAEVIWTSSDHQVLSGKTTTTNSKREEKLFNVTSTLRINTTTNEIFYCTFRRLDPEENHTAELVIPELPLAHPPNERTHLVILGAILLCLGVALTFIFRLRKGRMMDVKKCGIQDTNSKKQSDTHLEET
T4 sequence (chain, as listed by the source limits assumed): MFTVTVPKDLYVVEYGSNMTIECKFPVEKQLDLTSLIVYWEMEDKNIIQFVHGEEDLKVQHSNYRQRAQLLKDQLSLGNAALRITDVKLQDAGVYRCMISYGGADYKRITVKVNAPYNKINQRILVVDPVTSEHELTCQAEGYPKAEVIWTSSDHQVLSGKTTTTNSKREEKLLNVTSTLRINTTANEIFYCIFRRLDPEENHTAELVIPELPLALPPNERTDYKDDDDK
T3 sequence (Q9NZQ7 19-238 limits assumed): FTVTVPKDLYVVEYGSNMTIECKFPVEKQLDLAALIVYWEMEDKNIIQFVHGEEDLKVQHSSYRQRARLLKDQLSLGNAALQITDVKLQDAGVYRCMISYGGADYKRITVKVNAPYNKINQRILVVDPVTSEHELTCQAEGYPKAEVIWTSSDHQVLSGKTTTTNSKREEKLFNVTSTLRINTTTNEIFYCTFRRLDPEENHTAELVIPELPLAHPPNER
T5 sequence (Q9EP73 other isoform, or with tags, fused parts or gaps): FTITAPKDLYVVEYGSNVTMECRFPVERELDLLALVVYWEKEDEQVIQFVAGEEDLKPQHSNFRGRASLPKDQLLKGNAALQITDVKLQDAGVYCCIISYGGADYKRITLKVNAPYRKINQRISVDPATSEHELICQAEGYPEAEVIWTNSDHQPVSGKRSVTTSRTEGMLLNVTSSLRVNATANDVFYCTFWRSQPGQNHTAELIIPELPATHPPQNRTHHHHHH

| Binder | IC50 [2] | mean EC50, IFNγ induction, monocyte-T cell co-culture [3] | IC50 [5] | EC50, IL-2 induction, murine T cell hybridoma assay, n = 1 [8] | EC50, IL-2 induction, murine T cell hybridoma assay, n = 2 [8] | EC50, IL-2 induction, murine T cell hybridoma assay, n = 3 [8] | EC50, ADCC reporter assay, n = 1 [9] | EC50, ADCC reporter assay, n = 2 [9] | EC50, ADCC reporter assay, n = 3 [9] | IC50 [10] | IC50 [11] | other results |
| --- | --- | --- | --- | --- | --- | --- | --- | --- | --- | --- | --- | --- |
| B1 | 0.89 nM | 0.081 nM | 1.11 nM | 0.24 nM | 0.14 nM | 0.17 nM | 0.0249 nM | 0.0153 nM | 0.0259 nM | 1.41 nM | 1.41 nM | IC50 [1]: 1.82 nM; binding result (PD-L2-Fc (R&D Systems)): no binding (tested: 10 µg/mL top concentration); IC50 [4]: 7.9 nM; Kd [6]: 0.52 nM; Kd [7]: 0.43 nM |
| B2 |  |  |  |  |  |  |  |  |  |  |  | IC50 [12]: 0.882 nM; Kd [13]: 0.171 nM; IC50 [14]: 1.41 nM |
| B3 | 0.95 nM | 0.012 nM | 1.26 nM | 0.59 nM | 0.3 nM | 0.18 nM | 0.0191 nM | 0.015 nM | 0.0242 nM | 1.22 nM | 1.22 nM | Kd [15]: 0.794 nM; Kd [16]: 0.778 nM; mean fold increase IFNγ, monocyte-T cell co-culture [3]: 3.33 fold; IC50 [17]: 1 nM; IC50 [18]: 1.84 nM; binding result (Mouse PD-L1 ECD His): no binding; Kd [19]: 0.192 nM; Kd [20]: 0.172 nM; max fold induction, ADCC reporter assay, n = 1 [9]: 10.9 fold; max fold induction, ADCC reporter assay, n = 2 [9]: 20.1 fold; max fold induction, ADCC reporter assay, n = 3 [9]: 31.5 fold |
